Assay results as given in article PMC7857395 (Science (New York, N.y.), 2020).

Molecular target: SARS-CoV RBD (SARS-CoV (P59594; strain ), UniProt P59594)
Test: ELISA
Conditions: both partners purified

B1: S2E12 human monoclonal antibody (IgG) (antibody, V domains shown)
VH: not shown
VL: DIVLTQTPGTLSLSPGERATLSCRASQSVSSSYLAWYQQKPGQAPRLLIYGASSRATGIPDRFSGSGSGTDFTLTISRLEPEDFAVYYCQQYVGLTGWTFGQGTKVEIK
notes: also called S2E12 IgG; S2E12 mAb; copies: 2 + 2
binding result: no binding

B2: S2M11 human monoclonal antibody (IgG) (antibody, V domains shown)
VH: EVQLVQSGAEVKKPGASVKVSCKASGYTFTGYYMHWVRQAPGQGLEWMGWINPISSGTSYAQTFQGRVTMTSDTSITTAYMELSRLRSDDTAVYYCARAAPFYDFWSGYSYFDYWGQGTLVTVSS
VL: not shown
notes: also called S2M11 IgG; S2M11 mAb; copies: 2 + 2
binding result: no binding
